The values below are quoted from earlier work in paper PMC9326902.

The target in this series is Hemoglobin (Homo sapiens) (UniProt P69905).
Chain of UniProt P69905 (P69905 2-142, chain 1 of 2): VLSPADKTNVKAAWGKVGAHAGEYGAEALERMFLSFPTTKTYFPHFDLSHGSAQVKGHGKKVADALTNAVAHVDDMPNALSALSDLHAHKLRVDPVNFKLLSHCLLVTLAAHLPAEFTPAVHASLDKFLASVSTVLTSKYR
Chain of UniProt P69905 (P68871 2-147, chain 2 of 2, further chain): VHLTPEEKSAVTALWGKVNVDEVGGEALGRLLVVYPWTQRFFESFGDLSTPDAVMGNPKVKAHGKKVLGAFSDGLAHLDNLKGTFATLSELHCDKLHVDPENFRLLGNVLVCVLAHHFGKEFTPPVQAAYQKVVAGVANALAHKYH

For orientation: Kd means the equilibrium constant for the complex coming apart. Take IsdH N2 (from UniProt Q2FXJ2): the Kd is 7.5 µM.
